Assay in all cases: purified protein
Type in all cases: biochemical, Escherichia coli
Details in all cases: 0.05 M phosphate buffer, pH 7.0, 35 °C

Substrate in data set [1]: CCCCCCCCCC(=O)N[C@H]1CCOC1=O
Substrate in data set [2]: CCCCCC(=O)CC(=O)N[C@H]1CCOC1=O
Substrate in data set [3]: CCCC(=O)CC(=O)N[C@H]1CCOC1=O
Substrate in data set [4]: CCCCCCCCCC(=O)CC(=O)N[C@H]1CCOC1=O

B1: ecPGA (Escherichia coli penicillin G acylase) (Escherichia coli) (protein)
chain 1: EQSSSEIKIVRDEYGMPHIYANDTWHLFYGYGYVVAQDRLFQMEMARRSTQGTVAEVLGKDFVKFDKDIRRNYWPDAIRAQIAALSPEDMSILQGYADGMNAWIDKVNTNPETLLPKQFNTFGFTPKRWEPFDVAMIFVGTMANRFSDSTSEIDNLALLTALKDKYGVSQGMAVFNQLKWLVNPSAPTTIAVQESNYPLKFNQQNSQTA
chain 2: SNMWVIGKSKAQDAKAIMVNGPQFGWYAPAYTYGIGLHGAGYDVTGNTPFAYPGLVFGHNGVISWGSTAGFGDDVDIFAERLSAEKPGYYLHNGKWVKMLSREETITVKNGQAETFTVWRTVHGNILQTDQTTQTAYAKSRAWDGKEVASLLAWTHQMKAKNWQEWTQQAAKQALTINWYYADVNGNIGYVHTGAYPDRQSGHDPRLPVPGTGKWDWKGLLPFEMNPKVYNPQSGYIANWNNSPQKDYPASDLFAFLWGGADRVTEIDRLLEQKPRLTADQAWDVIRQTSRQDLNLRLFLPTLQAATSGLTQSDPRRQLVETLTRWDGINLLNDDGKTWQQPGSAILNVWLTSMLKRTVVAAVPMPFDKWYSASGYETTQDGPTGSLNISVGAKILYEAVQGDKSPIPQAVDLFAGKPQQEVVLAALEDTWETLSKRYGNNVSNWKTPAMALTFRANNFFGVPQAAAEETRHQAEYQNRGTENDMIVFSPTTSDRPVLAWDVVAPGQSGFIAPDGTVDKHYEDQLKMYENFGRKSLWLTKQDVEAHKESQEVLHVQR
For the protein B1, the Km in “purified protein [1]” was 2980 ± 200 µM; in “purified protein [2]”, 880 ± 40 µM; in the data set “purified protein [3]”, 510 ± 30 µM; in the data set “purified protein [4]” it was 2500 ± 100 µM. Further, the kcat in the data set “purified protein [1]” turned out to be 0.0045 ± 0.0004 s⁻¹; in the data set “purified protein [2]” it was 0.0077 ± 0.0004 s⁻¹; in “purified protein [3]”, 0.0100 ± 0.0002 s⁻¹; in the data set “purified protein [4]”, 0.0043 ± 0.0002 s⁻¹.
